Assay results reported in patent publication US20050142141A1 (University of California, published 2005).

Target: T1, soluble extracellular domain (ECD) of the human insulin receptor (human, UniProt P06213 28-956, limits assumed)
T1 construct: extracellular domain; also called HIR ECD; extracellular domain of the HIR
Test: immunoradiometric assay (IRMA) on HIR ECD with [125I]-murine 83-14 MAb as ligand
Text: In the IRMA, the antigen was the extracellular domain of the HIR, which was produced from transfected CHO cells and purified by lectin affinity chromatography of CHO cell conditioned medium.

Binder | Kd [nM]
murine 83-14 HIRMAb (antibody, V domains shown, Intact murine IgG from the 83-14 hybridoma; the murine constant regions and isotype are not; also called HIRMAb 83-14; MAb 83-14) VH: QVQLQESGPELVKPGALVKISCKASGYTFTNYDIHWVKQRPGQGLEWIGWIYPGDGSTKYNEKFKGKATLTADKSSSTAYMHLSSLTSEKSAVYFCAREWAYWGQGTLVTVSA VL: DIQMTQSPSSLSASLGERVSLTCRASQDIGGNLYWLQQGPDGTIKRLIYATSSLDSGVPKRFSGSRSGSDYSLTISSLESEDFVDYYCLQYSSSPWTFGGGTKMEIKR | 2.7
Version 5 humanized HIRMAb (antibody, human IgG1, V domains shown, also called version 5 HIRMAb; Version 5 humanized 83-14 HIRMAb) VH: QVQLLESGAELVRPGSSVKISCKASGYTFTNYDIHWVKQRPGQGLEWIGWIYPGDGSTKYNEKFKGKATLTADKSSSTAYMHLSSLTSEKSAVYFCAREWAYWGQGTTVTVSA VL: DIQMTQSPSSLSASVGERVTITCRASQDIGGNLYWYQQKPGKAPKLLIYATSSLDSGVPSRFSGSGSGTDYTFTISSLQPEDIATYYCLQYSSSPWTFGQGTKVEIKR | 3.7
